B1: Double-stranded C1r: interfering antigenic substance (complement analogue) that might exist in serum (protein)
chain: SIPIPQKLFGEVTSPLFPKPYPNNFETTTVITVPTGYRVKLVFQQFDLEPSEGCFYDYVKISADKKSLGRFCGQLGSPLGNPPGKKEFMSQGNKMLLTFHTDFSNEENGTIMFYKGFLAYYQAVDLDECASRSKSGEEDPQPQCQHLCHNYVGGYFCSCRPGYELQEDTHSCQAECSSELYTEASGYISSLEYPRSYPPDLRCNYSIRVERGLTLHLKFLEPFDIDDHQQVHCPYDQLQIYANGKNIGEFCGKQRPPDLDTSSNAVDLLFFTDESGDSRGWKLRYTTEIIKCPQPKTLDEFTIIQNLQPQYQFRDYFIATCKQGYQLIEGNQVLHSFTAVCQDDGTWHRAMPRCKIKDCGQPRNLPNGDFRYTTTMGVNTYKARIQYYCHEPYYKMQTRAGSRESEQGVYTCTAQGIWKNEQKGEKIPRCLPVCGKPVNPVEQRQRIIGGQKAKMGNFPWQVFTNIHGRGGGALLGDRWILTAAHTLYPKEHEAQSNASLDVFLGHTNVEELMKLGNHPIRRVSVHPDYRQDESYNFEGDIALLELENSVTLGPNLLPICLPDNDTFYDLGLMGYVSGFGVMEEKIAHDLRFVRLPVANPQACENWLRGKNRMDVFSQNMFCAGHPSLKQDACQGDSGGVFAVRDPNTDRWVATGIVSWGIGCSRGYGFYTKVLNYVDWIKKEMEEED
B2: MASP2: interfering antigenic substance (complement analogue), from Abnova (protein)
chain: TPLGPKWPEPVFGRLASPGFPGEYANDQERRWTLTAPPGYRLRLYFTHFDLELSHLCEYDFVKLSSGAKVLATLCGQESTDTERAPGKDTFYSLGSSLDITFRSDYSNEKPFTGFEAFYAAEDIDECQVAPGEAPTCDHHCHNHLGGFYCSCRAGYVLHRNKRTCSALCSGQVFTQRSGELSSPEYPRPYPKLSSCTYSISLEEGFSVILDFVESFDVETHPETLCPYDFLKIQTDREEHGPFCGKTLPHRIETKSNTVTITFVTDESGDHTGWKIHYTSTAQPCPYPMAPPNGHVSPVQAKYILKDSFSIFCETGYELLQGHLPLKSFTAVCQKDGSWDRPMPACSIVDCGPPDDLPSGRVEYITGPGVTTYKAVIQYSCEETFYTMKVNDGKYVCEADGFWTSSKGEKSLPVCEPVCGLSARTTGGRIYGGQKAKPGDFPWQVLILGGTTAAGALLYDNWVLTAAHAVYEQKHDASALDIRMGTLKRLSPHYTQAWSEAVFIHEGYTHDAGFDNDIALIKLNNKVVINSNITPICLPRKEAESFMRTDDIGTASGWGLTQRGFLARNLMYVDIPIVDHQKCTAAYEKPPYPRGSVTANMLCAGLESGGKDSCRGDSGGALVFLDSETERWFVGGIVSWGSMNCGEAGQYGVYTKVINYIPWIENIISDF
B3: MASP1: interfering antigenic substance (complement analogue), from Abnova (protein)
chain: HTVELNNMFGQIQSPGYPDSYPSDSEVTWNITVPDGFRIKLYFMHFNLESSYLCEYDYVKVETEDQVLATFCGRETTDTEQTPGQEVVLSPGSFMSITFRSDFSNEERFTGFDAHYMAVDVDECKEREDEELSCDHYCHNYIGGYYCSCRFGYILHTDNRTCRVECSDNLFTQRTGVITSPDFPNPYPKSSECLYTIELEEGFMVNLQFEDIFDIEDHPEVPCPYDYIKIKVGPKVLGPFCGEKAPEPISTQSHSVLILFHSDNSGENRGWRLSYRAAGNECPELQPPVHGKIEPSQAKYFFKDQVLVSCDTGYKVLKDNVEMDTFQIECLKDGTWSNKIPTCKIVDCRAPGELEHGLITFSTRNNLTTYKSEIKYSCQEPYYKMLNNNTGIYTCSAQGVWMNKVLGRSLPTCLPVCGLPKFSRKLMARIFNGRPAQKGTTPWIAMLSHLNGQPFCGGSLLGSSWIVTAAHCLHQSLDPEDPTLRDSDLLSPSDFKIILGKHWRLRSDENEQHLGVKHTTLHPQYDPNTFENDVALVELLESPVLNAFVMPICLPEGPQQEGAMVIVSGWGKQFLQRFPETLMEIEIPIVDHSTCQKAYAPLKKKVTRDMICAGEKEGGKDACAGDSGGPMVTLNRERGQWYLVGTVSWGDDCGKKDRYGVYSYIHHNKDWIQRVTGVRN

Test system: activated C1s
Assay: Cross reaction test of fluorescence detection method for activated C1s
Format: biochemical
Conditions: for Measured concentration: interferent in PBS: double-stranded C1r 660 μg/mL, MASP1 and MASP2 5000 μg/mL; for Cross reaction rate (%): measured value/theoretical value×100%
Procedure: • 1. Preparation of a buffer: 1) Binding Buffer: 0.1 M morpholinoethanesulfonic acid (MES, pH=5.0); • 2) Washing Buffer: TBS containing 0.05% Tween 20; • 3) Blocking Buffer: containing 0.05 M Tris, 1.0% BSA, and 0.05% Tween 20; • 4) Desired Buffer: Tris buffer containing 0.05% Tween 20 and BSA; and • 5) Tris Buffer: 0.05 M Tris, 0.15 M NaCl, and 0.2% (w/v) polyethylene glycol 8000. • 2. Preparation of immunomagnetic beads (C1s recombinant antibody-coupled magnetic beads) • (1) 10 mg of magnetic beads (Merck carboxyl magnetic beads, with a particle size of 1 μm) were washed 3 times with 1 mL of Binding Buffer, and vortexed to mix evenly. • (2) 20 μg of the C1s recombinant antibody obtained in Example 1 was added into every 1 mg of the magnetic beads, mixed well, and vortexed at a room temperature (25° C.) for 15 min. • (3) 50 μg of a coupling agent was added into every 1 mg of the magnetic beads, mixed well, and vortexed at a room temperature for 1 h. • (4) 1 mL of Binding Buffer was added and vortexed at a room temperature for 3 h. • (5) The magnetic beads were washed 4 times with 0.5 mL of Washing Buffer. • (6) The magnetic beads were resuspended with 1 mL of Desired Buffer to obtain C1s recombinant antibody-coupled magnetic beads with a concentration of 5 mg/mL, and stored at 4° C. until later use. • 3. Detection of the enzymatic activity of activated C1s • (1) 60 μL of the C1s recombinant antibody-coupled magnetic beads were stirred evenly, subjected to magnetic suction to remove a supernatant, added with 200 μL of PBS to mix well, subjected to the magnetic suction to remove a supernatant, and washed repeatedly 2 times. • (2) 10 μL of a sample to be tested or activated C1s standards with different concentrations were diluted to 100 μL with PBS, and mixed vertically with the C1s recombinant antibody-coupled magnetic beads at a room temperature for 10 min. The magnetic suction was performed to discard a supernatant. According to the enzymatic activity of the C1s standard determined in Example 4, the enzymatic activity conversion of the C1s standards with different concentrations is shown in Table 2.
• (3) The magnetic beads were repeatedly washed 3 times with 100 μL of PBS. • (4) The magnetic beads were resuspended with 90 μL of Tris buffer. • (5) 10 μL of substrate peptide 3 was added at a concentration of 1 μg/mL. • (6) The detection was performed with a microplate reader at 360/40 excitation light wave and 460/40 emission light wave, with a best reaction time of 1 h as a detection point, and the fluorescence signals were measured and recorded. The straight line fitting was performed by taking a C1s enzymatic activity as an abscissa and a fluorescence signal as an ordinate with a double logarithmic Log-Log mathematical model and using a least square method to plot a standard curve.
In this example, the specificity of the activated C1s was tested. The interfering antigenic substances (complement analogues) that might exist in serum were detected, such as double-stranded C1r, MASP1, and MASP2. The double-stranded C1r, MASP1, and MASP2 were separately diluted with PBS, and the diluted concentrations were 0.66 mg/mL, 5 mg/mL, and 5 mg/mL, successively. The complement analogues were detected based on the steps of Example 5. A cross reaction rate of various substances was calculated. Cross reaction rate=measured value/theoretical value×100%. […] The cross reaction rates were all less than 0.5%.

| Molecule | Measured concentration (C1s equivalent in brackets) | Measured concentration | Cross reaction rate (%) | Cross reaction rate (%) (listed as double-stranded C1r) |
| --- | --- | --- | --- | --- |
| B1 | 1 µg/mL | 0.91 pmol/min/µg | 0.15% | 0.3% |
| B2 | 1.8 µg/mL | 1.64 pmol/min/µg | 0.04% | – |
| B3 | 2 µg/mL | 1.82 pmol/min/µg | 0.04% | – |
